Measurements reported in publication PMC11253607, “A conserved inhibitory interdomain interaction regulates DNA-binding activities of hybrid two-component systems in Bacteroides” (mBio, 2024).
Residue numbers refer to the chain shown, from its start.

Tests used:
[1] = target: T1, BT4663-RRAG C1174A;H1175G (Bacteroides thetaiotaomicron VPI 5482) (UniProt Q89YR8); assay: EMSA; conditions: 50 mM Tris pH 7.6, 200 mM NaCl, 2.5% glycerol, 2 mM MgCl2, 0.5 mM DTT, 0.1 ug/uL BSA, 10 ng/uL salmon sperm DNA, ~2.5 ng/uL DNA; 30 min, temperature not …
T1 sequence: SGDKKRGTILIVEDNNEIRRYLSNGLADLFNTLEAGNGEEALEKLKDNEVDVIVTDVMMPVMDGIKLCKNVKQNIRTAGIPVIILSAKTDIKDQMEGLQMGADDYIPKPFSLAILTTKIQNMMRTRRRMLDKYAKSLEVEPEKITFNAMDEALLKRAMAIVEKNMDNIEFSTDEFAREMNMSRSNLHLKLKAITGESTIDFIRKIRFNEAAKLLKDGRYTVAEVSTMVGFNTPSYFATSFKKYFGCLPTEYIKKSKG

[2] = target: T2, BT4663-RRAD C1174A;H1175D (Bacteroides thetaiotaomicron VPI 5482) (UniProt Q89YR8); assay: EMSA; conditions: 50 mM Tris pH 7.6, 200 mM NaCl, 2.5% glycerol, 2 mM MgCl2, 0.5 mM DTT, 0.1 ug/uL BSA, 10 ng/uL salmon sperm DNA, ~2.5 ng/uL DNA; 30 min, temperature not …
T2 sequence: T1 sequence with G79D

GATGGTAGTGTGGGGTCTCATGCCTAGGATACAGGAGATAAACAGCTTTTTTAAACAAAAACAACATATGTCTCAACAAATTTGATATCAAAAAAATCATTTTTGAACAAAGTATGAACAACCTAAATTAAAGAATCTAATTAATGAGGTTACATTTGCAACAGTAAAATAACACTTTTAATAATTATAAAACCTAATAAAGTATGAAGAACGAGACCGAAATTCAATAAGGAGG (double strand) [bt4662 promoter fragment]
Kd [1]: 900 nM | Kd [2]: 900 nM
